Experiments:
Ube2G2/MmUbc7 = target: T1, Ube2G2/MmUbc7 (Mus musculus, UniProt P60605); assay: GST pull-down binding of in vitro translated 35S-Met Ube2G2/MmUbc7; design: species or system human; settings: GST fusion pull-down; 35S-Met labeled E2
T1 construct: made in house; host or cells: coupled in vitro transcription/translation in rabbit reticulocyte lysate or wheat germ
T1 sequence (P60605 1-165): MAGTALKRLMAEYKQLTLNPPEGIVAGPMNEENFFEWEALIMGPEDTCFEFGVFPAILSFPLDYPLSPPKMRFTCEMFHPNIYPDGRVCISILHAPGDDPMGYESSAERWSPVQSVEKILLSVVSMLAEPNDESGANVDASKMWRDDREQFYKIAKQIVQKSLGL
Description: GST fusions were purified from E. Coli. Binding was carried out using equi-molar amount of fusion proteins measured by Commassie blue staining. Generally, 20 picomoles/sample were used. In vitro translated E2 was generated by coupled transcription and translation using 35S methionine in either wheat germ or rabbit reticulocyte lysate. […] Beads were washed with binding buffer and resolved by SDS-PAGE under reducing conditions. Analysis was by Storm PhosphoImager (Applied Biosystems, Foster City, Calif.). Direct binding assays used wild type His6-MmUbc7 (His6-Ube2G2) and Glutathione-sepharose bound GST fusions. Beadbound GST protein was incubated with 100 ng purified His6-MmUbc7 in binding buffer and washed and eluted as above. After transfer to Hybond-P (Amersham Biosciences) binding was assessed with anti-His6 followed by Enhanced Chemiluminescence ECL; Pierce).
The E2 enzymes were in vitro translated using wheat germ.
GST fusion proteins encoding the regions indicated in FIGS. 3A-3C were evaluated for the ability to bind to Ube2G2/MmUbc7 that had been in vitro transcribed and translated in rabbit reticulocyte lysate. gp78C represents the entire C-terminal cytoplasmic domain of gp78 (amino acid residues 309-643 of SEQ ID NO:2).

Ube2G1 = target: T2, Ube2G1 (Rattus norvegicus, UniProt P62255); assay: GST pull-down binding of in vitro translated Ube2G1; settings: GST fusion pull-down
T2 construct: made in house; host or cells: in vitro translation in wheat germ (similar results in reticulocyte lysate)
T2 sequence (P62255 1-170): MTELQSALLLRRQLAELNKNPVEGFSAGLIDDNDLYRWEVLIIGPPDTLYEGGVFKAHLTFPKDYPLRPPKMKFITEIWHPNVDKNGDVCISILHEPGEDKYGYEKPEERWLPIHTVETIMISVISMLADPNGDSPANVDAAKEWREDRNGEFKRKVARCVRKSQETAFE
Excerpt: Plasmids encoding the following have been described: rat Ubc7 (Ube2g1) (Lin and Wing, 1999); UbcH5B (Jensen et al., 1995); Myc-MmUbc7, C89S Myc-MmUbc7, HA-CD3-δ and 2B4 TCR-α (Tiwari and Weissman, 2001); GST-gp78 309 to 643, 508 or 428 and full length gp78 and the double RING finger mutation gp78Rf-m in pCINeo (Fang et al., 2001); and GST-UBA-Cbl-b (Davies et al., 2004). Plasmids encoding Ubc7p and His6-MmUbc7 were generated by PCR and subcloned into pCDNA-DEST47 or pExp17 respectively using Gateway (Invitrogen, Carlsbad, Calif.). GST-AO7 (92 to 259) was subcloned from full length A07 (Lorick et al., 1999). GST-gp78 beginning at 429, 503, 522, 542, 561, 574, 587, or 596 and ending at 643 GST-gp78 beginning at 435 and ending at 507 and GST-Cue1p 24-203 (Cue1pC) were generated by PCR and cloning into pGEX4T-1 (Amersham Biosciences, Piscataway, N.J.). N-terminal Flag-tagged constructs were created by PCR and cloning into pFlag-CMV6 (Sigma). N-terminal GFP-tagged constructs were generated by subcloning from pFLAG-CMV6 to pEGFP-C1 (BD Biosciences, Palo Alto, Calif.). […]
GST fusions were purified from E. Coli. Binding was carried out using equi-molar amount of fusion proteins measured by Commassie blue staining. […] After transfer to Hybond-P (Amersham Biosciences) binding was assessed with anti-His6 followed by Enhanced Chemiluminescence ECL; Pierce). […]

UbcH5B = target: T3, UbcH5B (Homo sapiens, UniProt P62837); assay: GST pull-down binding of in vitro translated UbcH5B; settings: GST fusion pull-down
T3 construct: made in house; host or cells: in vitro translation in wheat germ
T3 sequence (P62837 whole entry, the tested form may be a part): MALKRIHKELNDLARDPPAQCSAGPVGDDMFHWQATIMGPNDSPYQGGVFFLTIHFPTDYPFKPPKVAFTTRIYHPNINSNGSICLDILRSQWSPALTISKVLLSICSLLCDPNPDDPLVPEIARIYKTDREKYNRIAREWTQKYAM
Description: (§1) GST fusions were purified from E. Coli. Binding was carried out using equi-molar amount of fusion proteins measured by Commassie blue staining. Generally, 20 picomoles/sample were used. In vitro translated E2 was generated by coupled transcription and translation using 35S methionine in either wheat germ or rabbit reticulocyte lysate. Binding assays using in vitro translated E2 was carried out by incubating GST protein pre-bound to Glutathione-sepharose 4B with […] of ^35S-methionine labeled E2 in binding buffer (25 mM Tris-HCl, pH 7.4; 50 mM NaCl, 5 mM DTT; and 0.5% NP-40) overnight at 4° C. Beads were washed with binding buffer and resolved by SDS-PAGE under reducing conditions. Analysis was by Storm PhosphoImager (Applied Biosystems, Foster City, Calif.). Direct binding assays used wild type His6-MmUbc7 (His6-Ube2G2) and Glutathione-sepharose bound GST fusions. Beadbound GST protein was incubated with 100 ng purified His6-MmUbc7 in binding buffer and washed and eluted as above. After transfer to Hybond-P (Amersham Biosciences) binding was assessed with anti-His6 followed by Enhanced Chemiluminescence ECL; Pierce). Ubiquitin binding studies were performed with binding and washing as above using 1 μg K48 tetra-ubiquitin produced as described (Piotrowski et al., 1997). Detection was by anti-ubiquitin immunoblotting. […]

Ubc7p = target: T4, Ubc7p (Saccharomyces cerevisiae, UniProt Q02159); assay: GST pull-down binding of in vitro translated Ubc7p; design: species or system yeast; settings: GST fusion pull-down
T4 construct: made in house; host or cells: in vitro translation in wheat germ from pCDNA-DEST47
T4 sequence (Q02159 1-165): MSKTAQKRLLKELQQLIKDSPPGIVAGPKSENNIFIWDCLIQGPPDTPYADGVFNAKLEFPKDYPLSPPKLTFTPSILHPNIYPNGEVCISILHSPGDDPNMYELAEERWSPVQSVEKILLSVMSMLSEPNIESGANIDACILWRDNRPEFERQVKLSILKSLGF
Description: as §1

[1] = target: T5, lysine 48-linked (K48) tetra-ubiquitin (Homo sapiens, UniProt P0CG47); assay: Tetra-ubiquitin binding to GST fusions; settings: anti-ubiquitin immunoblot
T5 construct: 1 μg K48 tetra-ubiquitin produced as described (Piotrowski et al., 1997); made in house
Description: (§2) GST fusions were purified from E. Coli. Binding was carried out using equi-molar amount of fusion proteins measured by Commassie blue staining. Generally, 20 picomoles/sample were used. In vitro translated E2 was generated by coupled transcription and translation using 35S methionine in either wheat germ or rabbit reticulocyte lysate. Binding assays using in vitro translated E2 was carried out by incubating GST protein pre-bound to Glutathione-sepharose 4B with […] of ^35S-methionine labeled E2 in binding buffer (25 mM Tris-HCl, pH 7.4; 50 mM NaCl, 5 mM DTT; and 0.5% NP-40) overnight at 4° C. Beads were washed with binding buffer and resolved by SDS-PAGE under reducing conditions. Analysis was by Storm PhosphoImager (Applied Biosystems, Foster City, Calif.). Direct binding assays used wild type His6-MmUbc7 (His6-Ube2G2) and Glutathione-sepharose bound GST fusions. Beadbound GST protein was incubated with 100 ng purified His6-MmUbc7 in binding buffer and washed and eluted as above. After transfer to Hybond-P (Amersham Biosciences) binding was assessed with anti-His6 followed by Enhanced Chemiluminescence ECL; Pierce). Ubiquitin binding studies were performed with binding and washing as above using 1 μg K48 tetra-ubiquitin produced as described (Piotrowski et al., 1997). Detection was by anti-ubiquitin immunoblotting.

His6-Ube2G2 = target: T6, His6-Ube2G2 (Mus musculus, UniProt P60605); assay: Direct binding of bacterially expressed His6-Ube2G2 to GST fusions; settings: purified E2, anti-His6 immunoblot
T6 construct: made in house; host or cells: bacteria (pExp17, Gateway)
T6 sequence (P60605 1-165): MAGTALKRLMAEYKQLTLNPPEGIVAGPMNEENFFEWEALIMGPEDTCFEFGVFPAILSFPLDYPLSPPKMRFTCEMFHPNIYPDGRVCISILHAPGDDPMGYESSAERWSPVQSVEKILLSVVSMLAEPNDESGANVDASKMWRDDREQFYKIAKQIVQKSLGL
Description: as §2

endogenous Ube2G2 = target: T7, endogenous Ube2G2 (Homo sapiens, UniProt P60604); assay: Co-immunoprecipitation of endogenous Ube2G2 with GFP fusions in HEK 293T cells; format: cell-based; settings: anti-GFP IP
T7 construct: endogenous in cells; host or cells: HEK 293T
T7 sequence (P60604 1-165): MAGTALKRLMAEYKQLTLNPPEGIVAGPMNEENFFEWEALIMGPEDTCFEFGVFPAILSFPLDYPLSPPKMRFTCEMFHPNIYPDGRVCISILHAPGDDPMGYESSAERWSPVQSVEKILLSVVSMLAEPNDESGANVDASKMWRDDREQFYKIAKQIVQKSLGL
Description: Transfections of HT1080, NIH 3T3 and HEK 293T cells were carried out ˜24 hr after plating using Polyfect (Qiagen, Valencia, Calif.) and cells harvested after ˜48 hr. J558 cells were transfected by electroporation using Bio-rad GENE pulser II at settings of 250 v, 950uF. Vector without insert was used to equalize total plasmid. In most experiments 0.15 μg of pEGFP-C1 served as an internal control. For experiments not involving immunoprecipitation, 6×10^5 cells were plated in 6 well plates and cell lysis was with Mammalian Protein Extraction Reagent (Pierce). […] Supernatants were analyzed after a 10,000×g centrifugation using standard techniques for immunoprecipitation, SDS-PAGE, immunoblotting and ECL. […]
FIG. 6 depicts the specific binding of gp78 residues 574-611 (of SEQ ID NO:2) to endogenous Ube2G2 in HEK 293T cells. Cells were transfected with plasmids encoding GFP fusions of the indicated regions of gp78, and co-immunoprecipitation was evaluated. […]
To determine the specificity of E2 binding in cells, GFP fusions encompassing the E2 binding region were expressed in cells, and co-immunoprecipitation of endogenous E2 was tested using antibodies raised specifically against Ube2g1, Ube2G2 and UbcH5B (FIG. 19B). […] In contrast, and consistent with the in vitro binding data in FIG. 18, no association with endogenous UbcH5B or Ube2g1 was detected (FIG. 19B third and fourth panels, left). […]

ERAD substrate CD3-δ = assay: Cycloheximide chase of CD3-δ in co-transfected cells; format: cell-based; settings: co-transfection with HA-CD3-δ
Description: (§3) Transfections of HT1080, NIH 3T3 and HEK 293T cells were carried out ˜24 hr after plating using Polyfect (Qiagen, Valencia, Calif.) and cells harvested after ˜48 hr. J558 cells were transfected by electroporation using Bio-rad GENE pulser II at settings of 250 v, 950uF. Vector without insert was used to equalize total plasmid. In most experiments 0.15 μg of pEGFP-C1 served as an internal control. For experiments not involving immunoprecipitation, 6×10^5 cells were plated in 6 well plates and cell lysis was with Mammalian Protein Extraction Reagent (Pierce). For immunoprecipitation, 2.4×10^6 cells were seeded in 100 mm dishes and cells were lysed in RIPA buffer (1×PBS, 1% Nonidet P40. 0.5% sodium deoxycholate, 0.1% SDS). Lysis buffers were supplemented with Protease Inhibitor Cocktail (Sigma) and 10 mM iodoacetamide. Supernatants were analyzed after a 10,000×g centrifugation using standard techniques for immunoprecipitation, SDS-PAGE, immunoblotting and ECL. Treatment of cells with MG132 (Sigma) was at 50 μM for eight hr. Cycloheximnide was used at 50 μg/ml. All cells were collected at the end of the six hr chase.
(§4) To evaluate protein turnover in more detail, cycloheximide chase experiments were performed (FIGS. 20C and 20D). […] In agreement with FIG. 20A, CD3-δ degradation was accelerated with wild type gp78 (FIGS. 20C and 20D middle panels; effects of full-length forms of gp78 on CD3-δ from FIGS. 20C and 20D are quantified in FIG. 20E).

gp78 = assay: Cycloheximide chase of gp78 in transfected cells; format: cell-based; settings: compared to wild type gp78
Description: as §3, §4

B1: Cue1pC: GST fusion of the cytoplasmic domain of yeast Cue1p (protein)
chain: QSNQHPSAQRLSATGVNAHGRPQGSTQNALRRTGRVNGGHPVTTQMVETVQNLAPNLHPEQIRYSLENTGSVEETVERYLRGDEFSFPPGFEPSRAPMGANAAVDNNAAGGGEFNDPRKKNMICAENLLDKFHVDLNEDMSNLSFKDLDIEERKRLLVWQARKNLETKLQSDKDLQSLLT
modifications: left off: a dimerising Fc or GST
notes: GST fusion of the cytoplasmic domain of yeast Cue1p
Ube2G2/MmUbc7
  binding to in vitro translated Ube2G2/MmUbc7: bound
Ube2G1
  binding to in vitro translated Ube2G1: no binding
UbcH5B
  binding to in vitro translated UbcH5B: bound to neither
Ubc7p
  binding to in vitro translated yeast Ubc7p: bound
[1]
  binding of K48 tetra-ubiquitin: no binding

B2: E2-m2: GST-gp78 fusion with residues 579-584 (QRMLVQ) mutated to AAAGGG; in b274 the same mutation in a GFP fusion (protein)
chain: MPLLFLERFPWPSLRTYTGLSGLALLGTIISAYRALSQPEAGPGEPDQLTASLQPEPPAPARPSAGGPRARDVAQYLLSDSLFVWVLVNTACCVLMLVAKLIQCIVFGPLRVSERQHLKDKFWNFIFYKFIFIFGVLNVQTVEEVVMWCLWFAGLVFLHLMVQLCKDRFEYLSFSPTTPMSSHGRVLSLLVAMLLSCCGLAAVCSITGYTHGMHTLAFMAAESLLVTVRTAHVILRYVIHLWDLNHEGTWEGKGTYVYYTDFVMELTLLSLDLMHHIHMLLFGNIWLSMASLVIFMQLRYLFHEVQRRIRRHKNYLRVVGNMEARFAVATPEELAVNNDDCAICWDSMQAARKLPCGHLFHNSCLRSWLEQDTSCPTCRMSLNIADNNRVREEHQGENLDENLVPVAAAEGRPRLNQHNHFFHFDGSRIASWLPSFSVEVMHTTNILGITQASNSQLNAMAHQIQEMFPQVPYHLVLQDLQLTRSVEITTDNILEGRIQVPFPTQRSDSIRPALNSPVERPSSDQEEGETSAQTERVPLDLSPRLEETLDFGEVEVEPSEVEDFEARGSRFSKSADERAAAGGGRKDELLQQARKRFLNKSSEDDAASESFLPLEGASSDPVTLRRRMLAAAAERRLQKQQTS
Ube2G2/MmUbc7
  binding to in vitro translated Ube2G2/MmUbc7: loss of binding
His6-Ube2G2
  direct binding of His6-Ube2G2: disrupted binding
Endogenous Ube2G2
  co-immunoprecipitation of endogenous Ube2G2: abrogated binding
ERAD substrate CD3-δ
  effect on CD3-δ degradation: minimal stabilization of CD3-δ
gp78
  gp78 stability: stabilized gp78

Source: patent publication US8420776B2, “Ube2G2 binding domain in the ubiquitin ligase gp78 and methods of use thereof” (The United States of America, as Represented by the …, priority 2004, dated 2013)
